Laboratory results reported in patent US20140087995A1 (published 2014).
Numbered stars: 1 amine (or outer) side, 2 acyl side, 3 side chain; on linkers, the order of the positions; unused ones are H or OH. Bridge positions count the residues as written; N and C are the ends. Side chains are listed from the residue outwards. Ends that are not written are not given here. * marks the point of attachment. C20 diacid = O=C(O)CCCCCCCCCCCCCCCCCCC(=O)*; γGlu = O=C(O)[C@H](CCC(=O)[*:2])N[*:1]

T1: rat calcitonin receptor (rat, UniProt P32214 25-516)
T1 construct: whole, on cells; also called rCTR; rat calcitonin (a) receptor
T1 sequence (looked up): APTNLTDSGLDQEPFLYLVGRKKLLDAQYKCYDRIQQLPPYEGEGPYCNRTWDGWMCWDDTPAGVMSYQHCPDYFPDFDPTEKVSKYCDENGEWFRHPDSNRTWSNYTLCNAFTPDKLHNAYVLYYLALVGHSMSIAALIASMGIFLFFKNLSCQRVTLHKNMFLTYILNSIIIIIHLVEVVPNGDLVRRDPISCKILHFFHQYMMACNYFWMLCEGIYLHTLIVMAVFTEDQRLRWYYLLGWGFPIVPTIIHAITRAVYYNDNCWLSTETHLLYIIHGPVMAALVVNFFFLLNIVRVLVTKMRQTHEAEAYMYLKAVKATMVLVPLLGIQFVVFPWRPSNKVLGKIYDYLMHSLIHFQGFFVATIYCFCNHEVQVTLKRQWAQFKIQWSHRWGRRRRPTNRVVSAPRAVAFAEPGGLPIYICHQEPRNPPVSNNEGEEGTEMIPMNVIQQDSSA

T2: human calcitonin receptor (human, UniProt P30988 25-474)
T2 construct: whole, on cells; also called hCTR; hCT
T2 sequence (looked up): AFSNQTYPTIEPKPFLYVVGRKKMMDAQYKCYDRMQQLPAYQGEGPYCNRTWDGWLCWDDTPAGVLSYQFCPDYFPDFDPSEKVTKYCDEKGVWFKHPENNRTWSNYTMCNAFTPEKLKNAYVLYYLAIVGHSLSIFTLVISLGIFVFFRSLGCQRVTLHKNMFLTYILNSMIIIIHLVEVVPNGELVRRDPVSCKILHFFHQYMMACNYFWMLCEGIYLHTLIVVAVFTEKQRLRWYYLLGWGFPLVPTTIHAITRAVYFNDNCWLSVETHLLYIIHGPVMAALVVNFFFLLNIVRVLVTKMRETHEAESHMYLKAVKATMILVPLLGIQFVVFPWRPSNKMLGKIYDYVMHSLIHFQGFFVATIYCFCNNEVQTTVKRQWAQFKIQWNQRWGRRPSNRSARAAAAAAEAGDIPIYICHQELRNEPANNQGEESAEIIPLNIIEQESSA

T3: rat amylin receptor (rat calcitonin receptor + rat RAMP 3) (rat, UniProt P32214 25-516; Q9JJ73 23-147)
T3 construct: whole, on cells; also called rAmylin-R; rat amylin 3(a) receptor
T3 sequence (looked up) 1: T1 sequence (looked up)
T3 sequence (looked up) 2: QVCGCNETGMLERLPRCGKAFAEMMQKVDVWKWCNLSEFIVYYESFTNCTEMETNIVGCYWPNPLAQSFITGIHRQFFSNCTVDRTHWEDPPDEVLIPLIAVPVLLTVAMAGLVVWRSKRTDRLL

B1: N^ε1-[(4S)-4-carboxy-4-(19-carboxynonadecanoylamino)butanoyl]-[Arg14,Arg17,Pro21,Pro27,Pro34]-h-amylin (peptide)
peptide: K([γGlu-C20 diacid])CNTATCATQRLARFLRHSSPNFGAIPSSTNVGPNTY-NH2
modifications: disulfide 2-7; N-terminus assumed
SMILES: CC[C@H](C)[C@H](NC(=O)[C@H](C)NC(=O)CNC(=O)[C@H](Cc1ccccc1)NC(=O)[C@H](CC(N)=O)NC(=O)[C@@H]1CCCN1C(=O)[C@H](CO)NC(=O)[C@H](CO)NC(=O)[C@H](Cc1c[nH]cn1)NC(=O)[C@H](CCCNC(=N)N)NC(=O)[C@H](CC(C)C)NC(=O)[C@H](Cc1ccccc1)NC(=O)[C@H](CCCNC(=N)N)NC(=O)[C@H](C)NC(=O)[C@H](CC(C)C)NC(=O)[C@H](CCCNC(=N)N)NC(=O)[C@H](CCC(N)=O)NC(=O)[C@@H](NC(=O)[C@H](C)NC(=O)[C@@H]1CSSC[C@H](NC(=O)[C@@H](N)CCCCNC(=O)CC[C@H](NC(=O)CCCCCCCCCCCCCCCCCCC(=O)O)C(=O)O)C(=O)N[C@@H](CC(N)=O)C(=O)N[C@@H]([C@@H](C)O)C(=O)N[C@@H](C)C(=O)N[C@@H]([C@@H](C)O)C(=O)N1)[C@@H](C)O)C(=O)N1CCC[C@H]1C(=O)N[C@@H](CO)C(=O)N[C@@H](CO)C(=O)N[C@H](C(=O)N[C@@H](CC(N)=O)C(=O)N[C@H](C(=O)NCC(=O)N1CCC[C@H]1C(=O)N[C@@H](CC(N)=O)C(=O)N[C@H](C(=O)N[C@@H](Cc1ccc(O)cc1)C(N)=O)[C@@H](C)O)C(C)C)[C@@H](C)O
notes: synthetic analogue of human amylin; also called compound 65
B2: N^ε1-[(4S)-4-carboxy-4-(19-carboxynonadecanoylamino)butanoyl]-[Arg17,Pro21,Pro27,His35]-h-amylin (peptide)
peptide: K([γGlu-C20 diacid])CNTATCATQRLANFLRHSSPNFGAIPSSTNVGSHTY-NH2
modifications: disulfide 2-7; N-terminus assumed
SMILES: CC[C@H](C)[C@H](NC(=O)[C@H](C)NC(=O)CNC(=O)[C@H](Cc1ccccc1)NC(=O)[C@H](CC(N)=O)NC(=O)[C@@H]1CCCN1C(=O)[C@H](CO)NC(=O)[C@H](CO)NC(=O)[C@H](Cc1c[nH]cn1)NC(=O)[C@H](CCCNC(=N)N)NC(=O)[C@H](CC(C)C)NC(=O)[C@H](Cc1ccccc1)NC(=O)[C@H](CC(N)=O)NC(=O)[C@H](C)NC(=O)[C@H](CC(C)C)NC(=O)[C@H](CCCNC(=N)N)NC(=O)[C@H](CCC(N)=O)NC(=O)[C@@H](NC(=O)[C@H](C)NC(=O)[C@@H]1CSSC[C@H](NC(=O)[C@@H](N)CCCCNC(=O)CC[C@H](NC(=O)CCCCCCCCCCCCCCCCCCC(=O)O)C(=O)O)C(=O)N[C@@H](CC(N)=O)C(=O)N[C@@H]([C@@H](C)O)C(=O)N[C@@H](C)C(=O)N[C@@H]([C@@H](C)O)C(=O)N1)[C@@H](C)O)C(=O)N1CCC[C@H]1C(=O)N[C@@H](CO)C(=O)N[C@@H](CO)C(=O)N[C@H](C(=O)N[C@@H](CC(N)=O)C(=O)N[C@H](C(=O)NCC(=O)N[C@@H](CO)C(=O)N[C@@H](Cc1c[nH]cn1)C(=O)N[C@H](C(=O)N[C@@H](Cc1ccc(O)cc1)C(N)=O)[C@@H](C)O)C(C)C)[C@@H](C)O
notes: synthetic analogue of human amylin; also called compound 60
B3: N^ε1-[(4S)-4-carboxy-4-(19-carboxynonadecanoylamino)butanoyl]-[Arg14,Arg17,Pro21,Pro27]-h-amylin (peptide)
peptide: K([γGlu-C20 diacid])CNTATCATQRLARFLRHSSPNFGAIPSSTNVGSNTY-NH2
modifications: disulfide 2-7; N-terminus assumed
SMILES: CC[C@H](C)[C@H](NC(=O)[C@H](C)NC(=O)CNC(=O)[C@H](Cc1ccccc1)NC(=O)[C@H](CC(N)=O)NC(=O)[C@@H]1CCCN1C(=O)[C@H](CO)NC(=O)[C@H](CO)NC(=O)[C@H](Cc1c[nH]cn1)NC(=O)[C@H](CCCNC(=N)N)NC(=O)[C@H](CC(C)C)NC(=O)[C@H](Cc1ccccc1)NC(=O)[C@H](CCCNC(=N)N)NC(=O)[C@H](C)NC(=O)[C@H](CC(C)C)NC(=O)[C@H](CCCNC(=N)N)NC(=O)[C@H](CCC(N)=O)NC(=O)[C@@H](NC(=O)[C@H](C)NC(=O)[C@@H]1CSSC[C@H](NC(=O)[C@@H](N)CCCCNC(=O)CC[C@H](NC(=O)CCCCCCCCCCCCCCCCCCC(=O)O)C(=O)O)C(=O)N[C@@H](CC(N)=O)C(=O)N[C@@H]([C@@H](C)O)C(=O)N[C@@H](C)C(=O)N[C@@H]([C@@H](C)O)C(=O)N1)[C@@H](C)O)C(=O)N1CCC[C@H]1C(=O)N[C@@H](CO)C(=O)N[C@@H](CO)C(=O)N[C@H](C(=O)N[C@@H](CC(N)=O)C(=O)N[C@H](C(=O)NCC(=O)N[C@@H](CO)C(=O)N[C@@H](CC(N)=O)C(=O)N[C@H](C(=O)N[C@@H](Cc1ccc(O)cc1)C(N)=O)[C@@H](C)O)C(C)C)[C@@H](C)O
notes: synthetic analogue of human amylin; also called compound 83
B4: N^ε1-[(4S)-4-carboxy-4-(19-carboxynonadecanoylamino)butanoyl]-[Arg17,Pro21,Pro27,Arg34]-h-amylin (peptide)
peptide: K([γGlu-C20 diacid])CNTATCATQRLANFLRHSSPNFGAIPSSTNVGRNTY-NH2
modifications: disulfide 2-7; N-terminus assumed
SMILES: CC[C@H](C)[C@H](NC(=O)[C@H](C)NC(=O)CNC(=O)[C@H](Cc1ccccc1)NC(=O)[C@H](CC(N)=O)NC(=O)[C@@H]1CCCN1C(=O)[C@H](CO)NC(=O)[C@H](CO)NC(=O)[C@H](Cc1c[nH]cn1)NC(=O)[C@H](CCCNC(=N)N)NC(=O)[C@H](CC(C)C)NC(=O)[C@H](Cc1ccccc1)NC(=O)[C@H](CC(N)=O)NC(=O)[C@H](C)NC(=O)[C@H](CC(C)C)NC(=O)[C@H](CCCNC(=N)N)NC(=O)[C@H](CCC(N)=O)NC(=O)[C@@H](NC(=O)[C@H](C)NC(=O)[C@@H]1CSSC[C@H](NC(=O)[C@@H](N)CCCCNC(=O)CC[C@H](NC(=O)CCCCCCCCCCCCCCCCCCC(=O)O)C(=O)O)C(=O)N[C@@H](CC(N)=O)C(=O)N[C@@H]([C@@H](C)O)C(=O)N[C@@H](C)C(=O)N[C@@H]([C@@H](C)O)C(=O)N1)[C@@H](C)O)C(=O)N1CCC[C@H]1C(=O)N[C@@H](CO)C(=O)N[C@@H](CO)C(=O)N[C@H](C(=O)N[C@@H](CC(N)=O)C(=O)N[C@H](C(=O)NCC(=O)N[C@@H](CCCNC(=N)N)C(=O)N[C@@H](CC(N)=O)C(=O)N[C@H](C(=O)N[C@@H](Cc1ccc(O)cc1)C(N)=O)[C@@H](C)O)C(C)C)[C@@H](C)O
notes: synthetic analogue of human amylin; also called compound 79
B5: N^ε1-[(4S)-4-carboxy-4-(19-carboxynonadecanoylamino)butanoyl]-[Arg17,Pro21,Pro27,His34]-h-amylin (peptide)
peptide: K([γGlu-C20 diacid])CNTATCATQRLANFLRHSSPNFGAIPSSTNVGHNTY-NH2
modifications: disulfide 2-7; N-terminus assumed
SMILES: CC[C@H](C)[C@H](NC(=O)[C@H](C)NC(=O)CNC(=O)[C@H](Cc1ccccc1)NC(=O)[C@H](CC(N)=O)NC(=O)[C@@H]1CCCN1C(=O)[C@H](CO)NC(=O)[C@H](CO)NC(=O)[C@H](Cc1c[nH]cn1)NC(=O)[C@H](CCCNC(=N)N)NC(=O)[C@H](CC(C)C)NC(=O)[C@H](Cc1ccccc1)NC(=O)[C@H](CC(N)=O)NC(=O)[C@H](C)NC(=O)[C@H](CC(C)C)NC(=O)[C@H](CCCNC(=N)N)NC(=O)[C@H](CCC(N)=O)NC(=O)[C@@H](NC(=O)[C@H](C)NC(=O)[C@@H]1CSSC[C@H](NC(=O)[C@@H](N)CCCCNC(=O)CC[C@H](NC(=O)CCCCCCCCCCCCCCCCCCC(=O)O)C(=O)O)C(=O)N[C@@H](CC(N)=O)C(=O)N[C@@H]([C@@H](C)O)C(=O)N[C@@H](C)C(=O)N[C@@H]([C@@H](C)O)C(=O)N1)[C@@H](C)O)C(=O)N1CCC[C@H]1C(=O)N[C@@H](CO)C(=O)N[C@@H](CO)C(=O)N[C@H](C(=O)N[C@@H](CC(N)=O)C(=O)N[C@H](C(=O)NCC(=O)N[C@@H](Cc1c[nH]cn1)C(=O)N[C@@H](CC(N)=O)C(=O)N[C@H](C(=O)N[C@@H](Cc1ccc(O)cc1)C(N)=O)[C@@H](C)O)C(C)C)[C@@H](C)O
notes: synthetic analogue of human amylin; also called compound 77

What follows are binders tested against T1, rat calcitonin receptor (assay: ratio of binding IC50s: rat calcitonin receptor over rat amylin receptor (reference)).

Point of comparison: B3, “Ratio rCT/rAmylin binding” value 49.7. Against it:
- B1 — higher, 93.2
- B2 — higher, 122
- B4 — lower, 21.5
- B5 — higher, 137

These binders were tested against T2, human calcitonin receptor (assay: ratio of binding IC50s: human calcitonin receptor over human amylin receptor (reference)).
Summary of the method: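 Competition binding by SPA uses membrane preparations (35 ng/μL final) in pH 7.4 Hepes buffer with 1 mM CaCl2 and 5 mM MgCl₂. Incubation lasts 120 min at 25° C, and IC₅₀ comes from one-site fitting.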

Point of comparison: B5, “Ratio hCT/hAmylin binding” value 118. Against it:
- B1 — lower, 82.4
- B2 — lower, 45.2
- B3 — higher, 146
- B4 — lower, 46.1

These binders were tested against T1, rat calcitonin receptor (assay: SPA competition with 125I-calcitonin, membranes of BHK cells with rat calcitonin receptor (Assay VIII)).

Point of comparison: B3, IC50 140 nM. Against it:
- B1 — within 1.5-fold, 108 nM
- B2 — 5.3-fold lower, 26.3 nM
- B4 — 3.9-fold lower, 35.5 nM
- B5 — within 1.5-fold, 205 nM

These binders were tested against T3, rat amylin receptor (rat calcitonin …) (assay: SPA competition with 125I-rat amylin, membranes of BHK cells with rat calcitonin receptor + rat RAMP3 (Assay VI)).

Point of comparison: B2, IC50 0.215 nM. Against it:
- B1 — 5.4-fold higher, 1.16 nM
- B3 — 13-fold higher, 2.83 nM
- B4 — 7.7-fold higher, 1.65 nM
- B5 — 7-fold higher, 1.5 nM
